# B1: Protein PALS1 (Homo sapiens), Q8N3R9 (parent)
# chain: MTTSHMNGHVTEESDSEVKNVDLASPEEHQKHREMAVDCPGDLGTRMMPIRRSAQLERIRQQQEDMRRRREEEGKKQELDLNSSMRLKKLAQIPPKTGIDNPMFDTEEGIVLESPHYAVKILEIEDLFSSLKHIQHTLVDSQSQEDISLLLQLVQNKDFQNAFKIHNAITVHMNKASPPFPLISNAQDLAQEVQTVLKPVHHKEGQELTALLNTPHIQALLLAHDKVAEQEMQLEPITDERVYESIGQYGGETVKIVRIEKARDIPLGATVRNEMDSVIISRIVKGGAAEKSGLLHEGDEVLEINGIEIRGKDVNEVFDLLSDMHGTLTFVLIPSQQIKPPPAKETVIHVKAHFDYDPSDDPYVPCRELGLSFQKGDILHVISQEDPNWWQAYREGDEDNQPLAGLVPGKSFQQQREAMKQTIEEDKEPEKSGKLWCAKKNKKKRKKVLYNANKNDDYDNEEILTYEEMSLYHQPANRKRPIILIGPQNCGQNELRQRLMNKEKDRFASAVPHTTRSRRDQEVAGRDYHFVSRQAFEADIAAGKFIEHGEFEKNLYGTSIDSVRQVINSGKICLLSLRTQSLKTLRNSDLKPYIIFIAPPSQERLRALLAKEGKNPKPEELREIIEKTREMEQNNGHYFDTAIVNSDLDKAYQELLRLINKLDTEPQWVPSTWLR
# Variants of: B1
# Details: with vemp_sars E
row,Variant,effect of a mutation on the interaction
1,F318W,increasing interaction strength
